According to the Human Domainome abundance scans (Beltran et al. 2025):
± gives the uncertainty stated by the source.

B1: Zinc finger MYM-type protein 6, residues 427 to 504; numbered along this chain, O95789 (parent)
chain: KLKCQHCNHLFATKPELLFYKGKMFLFCGKNCSDEYKKKNKVVAMCDYCKLQKIIKETVRFSGVDKPFCSEVCKFLSA

Variants of: B1
Test: abundance fitness (aPCA) (normalised: wild type 0, dead -1); higher = more abundant; growth selection in yeast, the domain comes from the species named
Conditions: Homo sapiens

KLKCQHCNHLFATKPELLFYKGKMFLFVGKNCSDEYKKKNKVVAMCDYCKLQKIIKETVRFSGVDKPFCSEVCKFLSA [C28V] and KLKCQHCNHLFATKPELLFYKGKMFLFWGKNCSDEYKKKNKVVAMCDYCKLQKIIKETVRFSGVDKPFCSEVCKFLSA [C28W] are within error of each other in abundance fitness: -1.1 ± 0.11 for the first, -1 ± 0.082 for the second.

Going from KLKCQHCNHLFATKPELLFYKGKMFLFMGKNCSDEYKKKNKVVAMCDYCKLQKIIKETVRFSGVDKPFCSEVCKFLSA [C28M] to KLKCQHCNHLFATKPELLFYKGKMFLFNGKNCSDEYKKKNKVVAMCDYCKLQKIIKETVRFSGVDKPFCSEVCKFLSA [C28N], the abundance fitness rises from -0.752 ± 0.22 to -0.367 ± 0.11.

First: KLKCQHCNHLFATKPELLFYKGKMFLFDGKNCSDEYKKKNKVVAMCDYCKLQKIIKETVRFSGVDKPFCSEVCKFLSA [C28D]
Second: KLKCQHCNHLFATKPELLFYKGKMFLFHGKNCSDEYKKKNKVVAMCDYCKLQKIIKETVRFSGVDKPFCSEVCKFLSA [C28H]
The abundance fitness of the first is higher: -0.352 ± 0.061 for the first, -0.608 ± 0.12 for the second.

Going from KLKCQHCNHLFATKPELLFYKGKMFLFEGKNCSDEYKKKNKVVAMCDYCKLQKIIKETVRFSGVDKPFCSEVCKFLSA [C28E] to KLKCQHCNHLFATKPELLFYKGKMFLFAGKNCSDEYKKKNKVVAMCDYCKLQKIIKETVRFSGVDKPFCSEVCKFLSA [C28A], the abundance fitness falls from -0.671 ± 0.079 to -1 ± 0.061.

KLKCQHCNHLFATKPELLFYKGKMFLFLGKNCSDEYKKKNKVVAMCDYCKLQKIIKETVRFSGVDKPFCSEVCKFLSA [C28L] and KLKCQHCNHLFATKPELLFYKGKMFLFSGKNCSDEYKKKNKVVAMCDYCKLQKIIKETVRFSGVDKPFCSEVCKFLSA [C28S] are within error of each other in abundance fitness: -0.859 ± 0.087 for the first, -0.969 ± 0.11 for the second.

KLKCQHCNHLFATKPELLFYKGKMFLFQGKNCSDEYKKKNKVVAMCDYCKLQKIIKETVRFSGVDKPFCSEVCKFLSA [C28Q] and KLKCQHCNHLFATKPELLFYKGKMFLFGGKNCSDEYKKKNKVVAMCDYCKLQKIIKETVRFSGVDKPFCSEVCKFLSA [C28G] are within error of each other in abundance fitness: -1.28 ± 0.48 for the first, -0.866 ± 0.04 for the second.

KLKCQHCNHLFATKPELLFYKGKMFLFKGKNCSDEYKKKNKVVAMCDYCKLQKIIKETVRFSGVDKPFCSEVCKFLSA [C28K] and KLKCQHCNHLFATKPELLFYKGKMFLFRGKNCSDEYKKKNKVVAMCDYCKLQKIIKETVRFSGVDKPFCSEVCKFLSA [C28R] are within error of each other in abundance fitness: -0.731 ± 0.14 for the first, -0.877 ± 0.065 for the second.

Compared with KLKCQHCNHLFATKPELLFYKGKMFLFFGKNCSDEYKKKNKVVAMCDYCKLQKIIKETVRFSGVDKPFCSEVCKFLSA [C28F], KLKCQHCNHLFATKPELLFYKGKMFLFCGLNCSDEYKKKNKVVAMCDYCKLQKIIKETVRFSGVDKPFCSEVCKFLSA [K30L] is higher in abundance fitness: -0.855 ± 0.25 for the first, -0.061 ± 0.034 for the second.

Going from KLKCQHCNHLFATKPELLFYKGKMFLFCGGNCSDEYKKKNKVVAMCDYCKLQKIIKETVRFSGVDKPFCSEVCKFLSA [K30G] to KLKCQHCNHLFATKPELLFYKGKMFLFCGDNCSDEYKKKNKVVAMCDYCKLQKIIKETVRFSGVDKPFCSEVCKFLSA [K30D], the abundance fitness falls from -0.032 ± 0.029 to -0.138 ± 0.043.

First: KLKCQHCNHLFATKPELLFYKGKMFLFCGCNCSDEYKKKNKVVAMCDYCKLQKIIKETVRFSGVDKPFCSEVCKFLSA [K30C]
Second: KLKCQHCNHLFATKPELLFYKGKMFLFCGFNCSDEYKKKNKVVAMCDYCKLQKIIKETVRFSGVDKPFCSEVCKFLSA [K30F]
The abundance fitness of the first is lower: -0.24 ± 0.059 for the first, -0.101 ± 0.054 for the second.

KLKCQHCNHLFATKPELLFYKGKMFLFCGENCSDEYKKKNKVVAMCDYCKLQKIIKETVRFSGVDKPFCSEVCKFLSA [K30E] and KLKCQHCNHLFATKPELLFYKGKMFLFCGHNCSDEYKKKNKVVAMCDYCKLQKIIKETVRFSGVDKPFCSEVCKFLSA [K30H] are within error of each other in abundance fitness: -0.037 ± 0.037 for the first, -0.063 ± 0.05 for the second.

KLKCQHCNHLFATKPELLFYKGKMFLFCGINCSDEYKKKNKVVAMCDYCKLQKIIKETVRFSGVDKPFCSEVCKFLSA [K30I] and KLKCQHCNHLFATKPELLFYKGKMFLFCGSNCSDEYKKKNKVVAMCDYCKLQKIIKETVRFSGVDKPFCSEVCKFLSA [K30S] are within error of each other in abundance fitness: 0.021 ± 0.11 for the first, -0.049 ± 0.032 for the second.

KLKCQHCNHLFATKPELLFYKGKMFLFCGMNCSDEYKKKNKVVAMCDYCKLQKIIKETVRFSGVDKPFCSEVCKFLSA [K30M] and KLKCQHCNHLFATKPELLFYKGKMFLFCGQNCSDEYKKKNKVVAMCDYCKLQKIIKETVRFSGVDKPFCSEVCKFLSA [K30Q] are within error of each other in abundance fitness: -0.059 ± 0.038 for the first, -0.096 ± 0.055 for the second.

KLKCQHCNHLFATKPELLFYKGKMFLFCGPNCSDEYKKKNKVVAMCDYCKLQKIIKETVRFSGVDKPFCSEVCKFLSA [K30P] and KLKCQHCNHLFATKPELLFYKGKMFLMCGKNCSDEYKKKNKVVAMCDYCKLQKIIKETVRFSGVDKPFCSEVCKFLSA [F27M] are within error of each other in abundance fitness: -0.107 ± 0.035 for the first, -0.066 ± 0.043 for the second.

Compared with KLKCQHCNHLFATKPELLFYKGKMFLSCGKNCSDEYKKKNKVVAMCDYCKLQKIIKETVRFSGVDKPFCSEVCKFLSA [F27S], KLKCQHCNHLFATKPELLFYKGKMFLCCGKNCSDEYKKKNKVVAMCDYCKLQKIIKETVRFSGVDKPFCSEVCKFLSA [F27C] is higher in abundance fitness: -0.459 ± 0.039 for the first, -0.025 ± 0.068 for the second.

Going from KLKCQHCNHLFATKPELLFYKGKMFLICGKNCSDEYKKKNKVVAMCDYCKLQKIIKETVRFSGVDKPFCSEVCKFLSA [F27I] to KLKCQHCNHLFATKPELLFYKGKMFLLCGKNCSDEYKKKNKVVAMCDYCKLQKIIKETVRFSGVDKPFCSEVCKFLSA [F27L], the abundance fitness rises from -0.365 ± 0.15 to -0.073 ± 0.037.

Compared with KLKCQHCNHLFATKPELLFYKGKMFLRCGKNCSDEYKKKNKVVAMCDYCKLQKIIKETVRFSGVDKPFCSEVCKFLSA [F27R], KLKCQHCNHLFATKPELLFYKGKMFLDCGKNCSDEYKKKNKVVAMCDYCKLQKIIKETVRFSGVDKPFCSEVCKFLSA [F27D] is higher in abundance fitness: -0.805 ± 0.04 for the first, -0.553 ± 0.062 for the second.

KLKCQHCNHLFATKPELLFYKGKMFLWCGKNCSDEYKKKNKVVAMCDYCKLQKIIKETVRFSGVDKPFCSEVCKFLSA [F27W] gave an abundance fitness of -0.372 ± 0.049.
